Data from paper PMC5318870.

Biological target: T1, RSV attachment glycoprotein G (RSV-G Protein, His Tag) (respiratory syncytial virus) (UniProt O36633)
T1 sequence: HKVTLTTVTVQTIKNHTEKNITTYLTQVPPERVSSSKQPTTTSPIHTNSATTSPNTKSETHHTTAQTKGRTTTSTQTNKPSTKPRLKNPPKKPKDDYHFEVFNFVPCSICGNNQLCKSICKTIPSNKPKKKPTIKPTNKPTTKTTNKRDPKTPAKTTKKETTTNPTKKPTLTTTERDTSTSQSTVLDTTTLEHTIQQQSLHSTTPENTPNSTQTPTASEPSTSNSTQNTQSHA
Test: fluorescence polarization
Conditions: FP: PBS pH 7.4, 0.5 nM aptamer; filter binding: PBS, BSA, 0.1% Tween 20, 0.1 ug/ml poly(dIdC), 50 nM aptamer, 20 min RT; ALPHA: HBSS, 1 mg/ml BSA, 0.05 ug/ml …

For “TAGGGAAGAGAAGGACATATGATAGTGCGGTGAGCCGTCGGACATACAAATACTTGACTAGTACATGACCACTTGA [H8 (Alexa Fluor 488)]”, the Kd was 30 nM.
